This is an account of results in article PMC8837555, “CRISPR and biochemical screens identify MAZ as a cofactor in CTCF-mediated insulation at Hox clusters”.

The target of this data set is T1, FLAG-MAZ (Mus musculus, UniProt P56671 1-477).
T1 sequence: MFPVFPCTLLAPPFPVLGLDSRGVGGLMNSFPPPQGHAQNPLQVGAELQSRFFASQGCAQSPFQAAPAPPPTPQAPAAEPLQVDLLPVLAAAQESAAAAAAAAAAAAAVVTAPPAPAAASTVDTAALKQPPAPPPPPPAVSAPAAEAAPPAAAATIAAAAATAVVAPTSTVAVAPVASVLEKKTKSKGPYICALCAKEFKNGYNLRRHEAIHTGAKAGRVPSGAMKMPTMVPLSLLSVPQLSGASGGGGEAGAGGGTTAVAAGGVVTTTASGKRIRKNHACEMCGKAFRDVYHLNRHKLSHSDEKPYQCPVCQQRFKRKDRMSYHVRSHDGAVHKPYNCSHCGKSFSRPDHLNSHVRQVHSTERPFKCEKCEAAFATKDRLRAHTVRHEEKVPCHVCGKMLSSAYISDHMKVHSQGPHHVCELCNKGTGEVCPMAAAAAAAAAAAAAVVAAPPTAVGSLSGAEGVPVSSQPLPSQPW
In words: EMSA; 1 mM ZnSO4, 5 mM MgCl2, salmon sperm DNA; 25 mM HEPES (pH not stated), 50 mM NaCl, 5% glycerol, 5 mM MgCl2, 1 mM ZnSO4, 2 μg salmon sperm DNA, 40 pM probe, 0.25-0.75 μg MAZ, 4 h at 30 °C; 5% gel, 0.25x. The conditions noted are these: protein: recombinant; tags: FLAG (CβF vector); label: 32P (T4 PNK); blunt. (In EMSA bound probe runs differently from free probe, usually more slowly.)

B1: maz.hoxa56.WT (dsDNA)
DNA 1: GGAGTTGGGTGGAGGCAAGAGGGGTGGCGCGCGCGCCCTG
DNA 2: CAGGGCGCGCGCGCCACCCCTCTTGCCTCCACCCAACTCC
On to B1, for which the binding result was “binds”.

B2: maz.hoxd48 (WT) (dsDNA)
DNA 1: CCTGGGTGGGAGGGGAATGGGAGGACACAAGAGCCACCCGTTCTTCTGCCCCGCCTTCCACCTCAG
DNA 2: CTGAGGTGGAAGGCGGGGCAGAAGAACGGGTGGCTCTTGTGTCCTCCCATTCCCCTCCCACCCAGG
In the case of B2, the binding result was “binds”.
